According to US20240350596:

System: ghrelin (acylated; [3H]-ghrelin labeled on the octanoic acid moiety of the acylated Ser3)

Row | Substance | Relative catalytic efficiency for ghrelin (Relative to CocH3) (fold relative to CocH3)
1 | BChE mutant A199S/F227A/P285Q/S287G/A328W/Y332G | 3
2 | BChE mutant A199S/F227A/P285S/S287G/A328W/Y332G | 2
3 | BChE mutant A199S/S287G/A328W/Y332G | 2
4 | BChE mutant F398I | 2
5 | BChE mutant T284S/P285I/F398I | 3
6 | BChE mutant T284S/P285I/V288I | 3
7 | BChE mutant T284S/P285I/V288I/F398I | 3
8 | BChE-M02 (A199S/F227A/P285A/S287G/A328W/Y332G mutant of human BChE) | 3
9 | CocH3 (A199S/F227A/S287G/A328W/Y332G mutant of human BChE) | 1
10 | Wild-type human BChE | 1.5
